Residue numbers refer to the chain shown, from its start. Names may count otherwise. Read-outs that look alike come from different tables or passages of the source.
Key:
[1] = test system: human β2GPI-dependent antiphospholipid antibody; assay: Micropanning of mutant domain 1 phage, patient antibodies; assay type: binding; settings: for Micropan score: Table 7B
rabbit anti-human β2GPI = assay: Micropanning of mutant domain 1 phage, rabbit antibody; assay type: binding; design: key: 0 (<10 colonies) to 4+ (confluent) semiquantitative colony score; settings: for Micropan score: Table 7B; for μpan score: Table 7A
Procedure: Error prone PCR was carried out as follows. Domain 1 of human β2GPI was amplified by PCR under conditions that enhance the error rate of Taq polymerase. The primers were such that amino acids 1-64 were amplified. A Sfc 1 restriction site was incorporated as part of amino acid 1. At the 3′ end a Sal 1 restriction site was incorporated after amino acid 64. The PCR reaction was done as described by Leung et al. (1989) Technique 1:11, using 0.25 mM MnCl2. The PCR product was digested with Sfc 1 and Sal 1 and cloned into fd-tet-DOG2 that had been digested with Apal 1 and Sal 1. This positions domain 1 at the N-terminus of pill immediately after the pill signal sequence. The ligation reaction was electroporated in E. coli K91. Phage were harvested and titered by standard methods. Resulting phage clones were assayed using a micropanning technique.
Immulon type 2 plates were coated with protein G. Protein G was prepared at 5 μg/mL in 0.1 M NaHCO3 and 100 μL per well was added to the wells of microtitration plates and incubated overnight at 4° C. After discarding excess protein G solution from plates, each well was blocked with 200 μL 2YT for 1 hour at RT with agitation on an oscillating platform. Tris-buffered saline, pH 7.4/0.5% Tween 20 (TBS/Tween), was used with an automatic plate washer to wash the wells 4 times with 200 μL. One hundred μL human β2GPI-dependent antiphospholipid 6626, 6501, 6701, rabbit β2GPI-dependent antiphospholipid, or control normal IgG, diluted to 2.5 μg/mL with 2YT, was added to washed wells. The plate was incubated for 1 hour at room temperature on a rotating platform.
Phage to be tested by micropanning were obtained from the agar plates generated by biopanning. Each clone to be tested was transferred using sterile toothpicks to a separate well of a round-bottom 96-well microtitration plate (Corning, Corning, N.Y.) containing 200 μL 2YT/Tet per well and cultured overnight at 30° C. Following overnight incubation, phage cultures were centrifuged using a microtitration plate holder at 1300×g for 10 minutes at room temperature. Supernatants constituted the source of “neat” phage. The neat phage were diluted 1: 100-1:1000 and 100 μL was added to the plate containing protein G-bound β2GPI-dependent antiphospholipid antibody-6501 and normal IgG prepared as described above. The incubation of dilute phage with aPL antibody or control IgG was carried out for 2 hours at room temperature on a flat rotator. After 9 washes with TBS/Tween in an automated plate washer, the IgG-bound phage was eluted with 20 μL of 0.2 N HCl-glycine/0.1% BSA, pH 2.2. The elution incubation continued for 10 minutes at RT, during which time a new Corning microtitration plate was prepared containing 20 μL of freshly starved E. coli per well and kept chilled. One hundred forty μL of 29 mM Tris was added to the plate containing the phage eluates in order to neutralize the pH, following which 20 μL of phage suspension was transferred from each well to the corresponding well in the plate containing starved E. coli. After a 10 minute incubation at 37° C., 200 μL 2YT was added and incubation carried out an additional 30 minutes at 37° C. Using multichannel pipettors, 8 μL from each well was spotted on a large 2YT/Tet agar plate while retaining the original 8×12 well pattern and orientation from the last microtitration plate. After allowing the spots to dry for 30 minutes, the plate was incubated overnight at 30° C. The following day, colonies were semiquantitatively scored from 0 to 4+, with 0 symbolizing <10 colonies; 1+=10-30; 2+=30 colonies to 70% confluent; 3+=70%-90% confluent; 4+=confluent.
For Table 7A, the rabbit anti-human β2GPI was performed on two separate occasions. Mutations are listed with the original amino acid, the position number, and the identity of the amino acid at that position in the mutant. […] Non-mutated domain 1 have a score of 3+, while domain 5 phage gave a score of −. Silent mutations are not shown. […]

[2] = test system: affinity purified β2GPI-dependent antiphospholipid antibody; assay: Competitive inhibition ELISA: recombinant β2GPI proteins compete for antibody binding to coated full length recombinant β2GPI; design: species or system human; settings: for IC50: read-out: 50% (concentration to give 50% inhibition)
Procedure: Microtiter plates (MaxiSorp™, Nalge Nunc International, Denmark) were coated with 50 μl of full length recombinant β2GPI at 10 μg/ml in 0.1 M bicarbonate, pH 9.5, incubated overnight at 4° C., washed three times with 0.15 M PBS, pH 7.2, and blocked for one hour at room temperature with 75 μl of 2% Non-fat Dried Milk (Carnation, 2% NFDM). Test inhibitors were diluted in 2% NFDM and 25 μl of each dilution was added to coated wells. Affinity purified β2GPI-dependent antiphospholipid antibody was diluted in 2% NFDM and 25 μl, of a constant concentration, was added to the wells, including a group of wells that had no inhibitor, which acted as the positive controls. The contents of the wells were mixed and the plates were incubated at 37° C. for one hour. The plates were washed three times with PBS, 50 μl of alkaline phosphatase conjugated anti-human IgG, gamma chain specific, (Zymed #62-8422) diluted appropriately in 2% NFDM was added and incubated at 37° C. for one hour. The plates were washed three times with PBS, 50 μl of alkaline phosphatase PPMP chromogenic substrate solution was added and incubated for 30 minutes, at room temperature. The Optical Density, at 550 nm, was determined by reading the plates in a microplate autoreader (Bio-Teck Instruments, model EL3 11). The percent inhibition was determined by dividing the OD550 obtained in the presence of inhibitor by the mean OD550 obtained from the wells without inhibitor and then multiplying by 100 (more particularly, [mean A550 obtained from control wells without inhibitor less A550 of background] minus [A550 obtained in presence of inhibitor less A550 of background] divided by [mean A550 obtained from control wells without inhibitor less A550 of background] times 100).
Seven to nine different recombinant β2GPI mutant proteins were used to determine the antigenic specificity of affinity purified β2GPI-dependent antiphospholipid antibody preparations from 13 different patients. Each mutant recombinant β2GPI protein was tested, in a dose dependent fashion, for its ability to inhibit affinity purified β2GPI-dependent antiphospholipid antibody from binding to full length recombinant β2GPI. The following values were also observed for domain 1 only recombinant protein (1 - - - -; see Table 2 for designations): […]

[3] = test system: affinity purified β2GPI-dependent antiphospholipid antibody; assay: Direct binding ELISA, nickel chelate-coated wells charged with recombinant β2GPI proteins (no cardiolipin); design: species or system human; settings: O.D. at 550 nm
Procedure: Nickel Chelate-coated microwell plates (NCP 010 00 Xenopore Corp. 374 Midland Ave. Saddle Brook, N.J. USA) were coated with 50 μl of serial dilutions of the various recombinant β2GPI, in PBS, at room temperature for 2 hours. The plates were washed three times with PBS and blocked with 75 μl of a 1% gelatin (Sigma #G-2500) in PBS for one hour room temperature. […] The plates were washed three times with PBS, 50 μl of alkaline phosphatase conjugated anti-immunoglobulin (anti-human IgG, gamma chain specific, Zymed #62-8422) or anti-rabbit IgG (Zymed #62-6122) diluted appropriately in 1% gelatin was added and incubated at 37° C. for one hour. The plates were washed three times with PBS, 50 μl of alkaline phosphatase PPMP chromogenic substrate solution was added and incubated for 30 minutes at room temperature. The optical density, at 550 nm, was determined by reading the plates in a microplate autoreader (Bio-Teck Instruments, model EL311).
Seven to nine different recombinant β2GPI mutant proteins were examined to determine if they could support the direct binding of affinity purified β2GPI-dependent antiphospholipid antibody preparations in the absence of anionic phospholipid. All recombinant mutant β2GPI were assayed with affinity purified β2GPI-dependent antiphospholipid antibody preparations from 11 different patients. Each mutant recombinant β2GPI protein was tested, in a dose dependent fashion and GST-6his was included as a negative control. The recombinant mutant β2GPI proteins were bound to nickel coated microtiter plates via their 6-his tail. All recombinant mutant β2GPI proteins tested bound rabbit anti-β2GPI showing that they were assessable by antibody (FIG. 5).

B1: Dom1: phage displaying wild type (WT) domain 1 (protein)
chain: GRTCPKPDDLPFSTVVPLKTFYEPGEEITYSCKPGYVSRGGMRKFICPLTGLWPINTLKCTPRV
- Micropan score ([1]; antibody 6226): 4
- Micropan score ([1]; antibody 6501): 4
- Micropan score ([1]; antibody 6632): 4
- Micropan score ([1]; antibody 6644): 4
- Micropan score ([1]; antibody 6701): 4
- Micropan score ([1]; antibody 7008): 4
- μpan score ([1]; control phage for Table 7A, antibody not stated): 3+ (3+=70%-90% confluent)
- Micropan score (rabbit anti-human β2GPI; 1st column): 4
- Micropan score (rabbit anti-human β2GPI; 2nd column): 4
- Micropan score (rabbit anti-human β2GPI; 3rd column): 4
- Micropan score (rabbit anti-human β2GPI; 4th column): 4
- Micropan score (rabbit anti-human β2GPI; 5th column): 4

B2: 12---: recombinant β2GPI deletion mutant with domains 1 and 2 (protein)
chain: GRTCPKPDDLPFSTVVPLKTFYEPGEEITYSCKPGYVSRGGMRKFICPLTGLWPINTLKCTPRVCPFAGILENGAVRYTTFEYPNTISFSCNTGFYLNGADSAKCTEEGKWSPELPVCAPIIGHHHHHH
- Max (maximum inhibition observed at concentrations tested) ([2]; Ab 6203): 20%
- IC50 ([2]; Ab 6203): > 10 µM
- Max (maximum inhibition observed at concentrations tested) ([2]; Ab 6501): 30%
- IC50 ([2]; Ab 6501): > 10 µM
- Max (maximum inhibition observed at concentrations tested) ([2]; Ab 6626): 50%
- IC50 ([2]; Ab 6626): > 10 µM
- Max (maximum inhibition observed at concentrations tested) ([2]; Ab 6632): 70%
- IC50 ([2]; Ab 6632): 3 µM
- Max (maximum inhibition observed at concentrations tested) ([2]; Ab 6644): 45%
- IC50 ([2]; Ab 6644): > 10 µM
- Max (maximum inhibition observed at concentrations tested) ([2]; Ab 7008): 40%
- IC50 ([2]; Ab 7008): > 10 µM
- Max (maximum inhibition observed at concentrations tested) ([2]; Ab 7015): 30%
- IC50 ([2]; Ab 7015): > 10 µM
- Max (maximum inhibition observed at concentrations tested) ([2]; Ab 7101): 20%
- IC50 ([2]; Ab 7101): > 10 µM
- Max (maximum inhibition observed at concentrations tested) ([2]; Ab 7104): 90%
- IC50 ([2]; Ab 7104): 1 µM
- Maximum O.D. ([3]; Ab 6203): 0.119
- Maximum O.D. ([3]; Ab 6501): 0.028
- Maximum O.D. ([3]; Ab 6626): 0.073
- Maximum O.D. ([3]; Ab 6632): 0.016
- Maximum O.D. ([3]; Ab 7008): 0.008
- Maximum O.D. ([3]; Ab 7015): 0.063

B3: 2A1: phage clone, domain 1 mutant T20S (protein)
chain: B1 chain with T20S
- μpan score ([1]; Table 7A, antibody 6501): 3
- μpan score ([1]; Table 7A, antibody 6626): 3
- μpan score ([1]; Table 7A, antibody 6701): 3
- Micropan score ([1]; antibody 6226): 4
- Micropan score ([1]; antibody 6501): 4
- Micropan score ([1]; antibody 6632): 4
- Micropan score ([1]; antibody 6644): 4
- Micropan score ([1]; antibody 6701): 4
- Micropan score ([1]; antibody 7008): 4
- μpan score (rabbit anti-human β2GPI; first (or only) value): 3
- Micropan score (rabbit anti-human β2GPI; 1st column): 4
- Micropan score (rabbit anti-human β2GPI; 2nd column): 4
- Micropan score (rabbit anti-human β2GPI; 3rd column): 4
- Micropan score (rabbit anti-human β2GPI; 4th column): 4

B4: 2B2: phage clone, domain 1 mutant V37E (protein)
chain: B1 chain with V37E
- μpan score ([1]; Table 7A, antibody 6501): 3
- μpan score ([1]; Table 7A, antibody 6626): 3
- μpan score ([1]; Table 7A, antibody 6701): 3
- Micropan score ([1]; antibody 6226): 4
- Micropan score ([1]; antibody 6501): 4
- Micropan score ([1]; antibody 6632): 4
- Micropan score ([1]; antibody 6644): 4
- Micropan score ([1]; antibody 6701): 4
- Micropan score ([1]; antibody 7008): 4
- μpan score (rabbit anti-human β2GPI; first (or only) value): 3
- Micropan score (rabbit anti-human β2GPI; 1st column): 4
- Micropan score (rabbit anti-human β2GPI; 2nd column): 4
- Micropan score (rabbit anti-human β2GPI; 3rd column): 4
- Micropan score (rabbit anti-human β2GPI; 4th column): 4

B5: D11: phage clone, domain 1 mutant N56D (protein)
chain: B1 chain with N56D
- μpan score (rabbit anti-human β2GPI; first (or only) value): 2
- μpan score (rabbit anti-human β2GPI; second value (second occasion)): 3

B6: 3F8: phage clone, domain 1 mutant T50A (protein)
chain: B1 chain with T50A
- Micropan score ([1]; antibody 6226): 2
- Micropan score ([1]; antibody 6501): 2
- Micropan score ([1]; antibody 6632): 2
- Micropan score ([1]; antibody 6644): 3
- Micropan score ([1]; antibody 6701): 2
- Micropan score ([1]; antibody 7008): 3

From US6858210B1, “Therapeutic and diagnostic domain 1 β2GPI polypeptides and methods of using same” (La Jolla Pharmaceutical Co., priority 1998, dated 2005)
